The record followed here is PMC2225448.

Square brackets hold non-standard residues; d marks the D form. Ends that are not written are not given here. pY = N[C@@H](Cc1ccc(OP(=O)(O)O)cc1)C(=O)O

For the test, the target named is SOCS4-ElonginC-ElonginB ternary complex (human), Q8WXH5. Briefly: ITC; 0.3-0.4 mM peptide injected into 15 μM protein; 50 mM HEPES (pH 7.5), 150 mM NaCl, 1 mM DTT, 20°C; blank titrations subtracted; single binding site model. The following applies: remark: other sources report otherwise.
SOCS4-ElonginC-ElonginB ternary complex (human), Q8WXH5, sequence (Q8WXH5 274-437, chain 1 of 3): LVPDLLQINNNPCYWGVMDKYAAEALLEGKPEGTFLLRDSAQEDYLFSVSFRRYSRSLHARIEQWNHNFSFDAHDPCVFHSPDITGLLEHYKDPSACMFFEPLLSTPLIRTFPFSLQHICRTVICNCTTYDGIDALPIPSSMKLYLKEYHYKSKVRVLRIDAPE
SOCS4-ElonginC-ElonginB ternary complex (human), Q8WXH5, sequence (Q15369 17-112, chain 2 of 3, further chain): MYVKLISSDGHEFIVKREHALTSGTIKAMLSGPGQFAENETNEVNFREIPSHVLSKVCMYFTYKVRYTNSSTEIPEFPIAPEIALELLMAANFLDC
SOCS4-ElonginC-ElonginB ternary complex (human), Q8WXH5, sequence (Q15370 whole entry, chain 3 of 3, further chain): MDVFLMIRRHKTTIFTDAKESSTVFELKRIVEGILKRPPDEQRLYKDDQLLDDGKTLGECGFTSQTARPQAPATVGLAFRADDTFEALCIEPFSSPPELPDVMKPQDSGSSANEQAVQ

As to ASFE[pY]TILDPS [EpoR pY402 peptide ASFE(pY)TILDPS], the Ka was 130000 M⁻¹, the Kd worked out at 7.7 µM, the dH was -14.5 kcal/mol and the stoichiometry N was found to be 0.71.
